Measured values from patent US20080118978A1 (published 2008).

Experiments:
CD10 [1] = target: T1, CD10 (human, UniProt P08473 2-750); experiment: flow cytometry on Raji and RTX/Raji cells, FITC anti-mouse IgG secondary
T1 construct: Endogenous CD10 of human cell lines: on Raji, RTX/Raji and Ramos cells in flow cytometry; In the ELISA it was a Triton X-100-dissolved membrane fraction of SBC-3 cells coated on the plate; also called CALLA; neutral endopeptidase
Protocol: The supernatant liquid was removed, cell pellets were loosened and 10 μL of FcR blocking reagent (manufactured by Miltenyi Biotec) was added thereto. After the mixture was allowed to stand on ice for about 30 minutes, an FACS buffer was added thereto and washed by centrifugal separation (about 5000×g for 1 minutes at 4° C.) was repeated three times. An FACS buffer was added so as to give a cell density of 2×10⁷ cells/ml for suspension and each 50 μL thereof was aliquated into a tube. The FACS buffer (50 μL) was added to each tube to suspend and the primary antibody solution was added thereto in an amount of 2.5 μL per tube. With regard to the primary antibody solution, each of mouse anti-CD10 antibody NL-1 [Proc. Natl. Acad. Sci. USA, 79, 4386 (1982)], anti-CD20 antibody B1 (manufactured by Beckman Coulter), FITC-labeled anti-CD19 antibody J4.119 (manufactured by Beckman Coulter) and FITC-labeled anti-CD22 antibody SJ.10.1H11 (manufactured by Beckman Coulter) was used. […] It was filtered by a Nylon mesh and transferred to a test tube to prepare a sample to be measured. Expression of CD antigen on the cell surface was measured using a flow cytometer Epics Elite (manufactured by Beckman Coulter).

CD10 [2] = target: T1, CD10; experiment: ELISA on plate-coated membrane fraction of CD10-expressing SBC-3 cells
Protocol: As to an antigen, a membrane fraction prepared from human lung small-cell tumor cell line SBC-3 cells (JCRB 0818) which highly express CD10 was used. The membrane fraction was suspended in 20 mM HEPES (pH 7.4) buffer containing 1 mM EDTA and 250 mM sucrose and cells were crushed using a homogenizer, then centrifugal separation was carried out at a low speed of 8,000×g so that granules in the cells and uncrushed cells were precipitated and removed and a centrifugal separation was carried out at a high speed of 80,000×g to separate the desired cell membrane. The separated membrane fraction was dissolved in PBS containing 0.1% of Triton-X 100 whereby protein was quantified, then made 10 μg/mL, dispensed at 50 μL/well into a 96-well plate for ELISA (manufactured by Gliner) and allowed to stand at 4° C. for one night for adsorption. After washing with PBS, 1% BSA-PBS was added in an amount of 100 μL/well and the reaction was carried out at room temperature for 1 hour to block the remaining active groups were blocked. […] After the reaction, each well was washed with Tween-PBS, a peroxidase-labeled goat anti-human IgG (H&L) antibody solution diluted 2,000-fold with 1% BSA-PBS was added as a secondary antibody solution in an amount of 50 μL/well and reaction was carried out at room temperature for 1 hour. After the reaction, washing was carried out with Tween-PBS, an ABTS substrate solution was added in an amount of 50 μL/well to develop color and OD415 was measured.

T1 sequence (P08473 2-750 limits assumed): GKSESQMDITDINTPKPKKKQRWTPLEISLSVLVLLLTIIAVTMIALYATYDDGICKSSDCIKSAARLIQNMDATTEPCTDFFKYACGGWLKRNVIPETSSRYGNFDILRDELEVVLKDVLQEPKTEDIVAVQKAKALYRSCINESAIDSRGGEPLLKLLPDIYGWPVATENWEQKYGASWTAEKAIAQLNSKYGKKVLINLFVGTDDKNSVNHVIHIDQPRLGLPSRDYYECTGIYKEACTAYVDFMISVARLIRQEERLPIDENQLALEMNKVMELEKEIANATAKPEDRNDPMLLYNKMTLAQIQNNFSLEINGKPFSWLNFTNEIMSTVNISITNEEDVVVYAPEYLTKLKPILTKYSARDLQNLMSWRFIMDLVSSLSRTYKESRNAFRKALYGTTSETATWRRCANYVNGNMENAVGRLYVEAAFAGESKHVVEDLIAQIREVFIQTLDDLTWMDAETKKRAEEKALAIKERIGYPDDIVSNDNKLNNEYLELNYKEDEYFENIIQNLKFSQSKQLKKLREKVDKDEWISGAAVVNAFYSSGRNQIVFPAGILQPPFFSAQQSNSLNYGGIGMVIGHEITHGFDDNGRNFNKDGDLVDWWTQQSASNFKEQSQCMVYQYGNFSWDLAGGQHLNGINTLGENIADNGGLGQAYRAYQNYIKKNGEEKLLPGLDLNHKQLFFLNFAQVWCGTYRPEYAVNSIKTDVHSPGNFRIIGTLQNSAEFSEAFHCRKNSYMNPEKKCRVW

Row | Binder | binding result (CD10 [1]) | binding result (CD10 [2])
1 | mouse anti-CD10 antibody NL-1 (antibody, V domains shown, Mouse hybridoma antibody; H chain cloned with a mouse Cgamma2a probe and L chain with a Ckappa probe; also called anti-CD10 mouse antibody NL-1) VH: DVQLVESGGGLVQPGGSRKLSCAASGFTFSSFGMHWVRQAPEKGLEWVAYISGGSYTIYYADTVKGRFTISRDNPKNTLFLQMTSLRSEDTAMYYCASSYGNFWYFDVWGAGTTVTVSS VL: EIVLTQSPALMAASPGEKVTIACSVSSSISSSNLHWYQQKSETSPKPWIYGTSNLASGVPVRFSGSGSGTSYFLTISSMEAEDAATYYCQQWSSYPLTFGGGTKLEIK | binds | 
2 | anti-CD10 humanized antibody HV0LV9 MS705 (antibody, V domains shown, also called HV0LV9 MS705 antibody; FERM BP-10099) VH: EVQLVESGGGVVQPGRSLRLSCAASGFTFSSFGMHWVRQAPGKGLEWVAYISGGSYTIYYADTVKGRFTISRDNSKNTLYLQMNSLRAEDTAVYYCARSYGNFWYFDVWGQGTTVTVSS VL: DIVMTQSPDSLAVSLGERATIACSVSSSISSSNLHWYQQKPGQSPKPWIYGTSNLASGVPVRFSGSGSGTSYFLTISSLQAEDVATYYCQQWSSYPLTFGQGTKVEIKR |  | binds

Now from value to binder:

Row | binding result (CD10 [1]) | binding result (CD10 [2]) | Binder
3 |  | binds | anti-CD10 humanized antibody HV2LV9 MS705 (antibody, V domains shown, also called HV2LV9 MS705 antibody) VH: EVQLVESGGGVVQPGRSLRLSCAASGFTFSSFGMHWVRQAPEKGLEWVAYISGGSYTIYYADTVKGRFTISRDNSKNTLYLQMNSLRAEDTAVYYCASSYGNFWYFDVWGQGTTVTVSS VL: DIVMTQSPDSLAVSLGERATIACSVSSSISSSNLHWYQQKPGQSPKPWIYGTSNLASGVPVRFSGSGSGTSYFLTISSLQAEDVATYYCQQWSSYPLTFGQGTKVEIKR
4 |  | binds | anti-CD10 humanized antibody HV0LV0 MS705 (antibody, V domains shown, also called HV0LV0 MS705 antibody) VH: EVQLVESGGGVVQPGRSLRLSCAASGFTFSSFGMHWVRQAPGKGLEWVAYISGGSYTIYYADTVKGRFTISRDNSKNTLYLQMNSLRAEDTAVYYCARSYGNFWYFDVWGQGTTVTVSS VL: DIVMTQSPDSLAVSLGERATINCSVSSSISSSNLHWYQQKPGQPPKLLIYGTSNLASGVPDRFSGSGSGTDFTLTISSLQAEDVAVYYCQQWSSYPLTFGQGTKVEIKR
